Results on 4 molecules are retold here after patent US11231420 (APTALOGIC, INC.).

Data set [1] has as its target T1, Human serum albumin (HSA) (Homo sapiens, UniProt P02768 P02768:25-609). Kind of data set: filter; HSA up to 6 uM. The conditions noted are these: label: 5'-32P.
Data set [2] deals with T2, EBOV sGP (soluble glycoprotein) (Zaire ebolavirus, UniProt P60170 P60170:33-324). Kind of data set: filter; PBS with 5 mM Mg, pH 7. The settings on record: tags: His-tag; chain copies: 2; label: 5'-32P.
T2 sequence (P60170 33-324, one chain of several): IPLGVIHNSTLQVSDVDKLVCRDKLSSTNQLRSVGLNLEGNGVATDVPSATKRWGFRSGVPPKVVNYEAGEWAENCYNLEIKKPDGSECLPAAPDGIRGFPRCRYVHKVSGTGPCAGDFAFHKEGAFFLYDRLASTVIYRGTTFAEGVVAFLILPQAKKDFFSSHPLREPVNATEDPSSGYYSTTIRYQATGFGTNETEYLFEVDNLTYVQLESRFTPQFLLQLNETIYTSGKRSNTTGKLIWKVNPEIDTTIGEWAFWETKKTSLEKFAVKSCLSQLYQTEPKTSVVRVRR
Data set [3] addresses T2, EBOV sGP (soluble glycoprotein). Kind of data set: filter. The conditions noted are these: tags: His-tag; chain copies: 2; label: 5'-32P.
Another data set has as its target EBOV GP1,2 (UniProt Q05320 Q05320:33-650). Kind of data set: filter. The conditions noted are these: label: 5'-32P.
Data set [4] deals with T3, Lcn2 (lipocalin 2, uterocalin) (UniProt P11672 P11672:21-200).
T3 sequence: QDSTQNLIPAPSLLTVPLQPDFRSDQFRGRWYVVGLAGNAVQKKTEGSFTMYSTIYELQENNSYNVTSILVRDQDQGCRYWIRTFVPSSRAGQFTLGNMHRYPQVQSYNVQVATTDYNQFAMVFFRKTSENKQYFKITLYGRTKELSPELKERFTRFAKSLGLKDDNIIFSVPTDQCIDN
Kind of data set: filter; no serum. The settings on record: tags: His-tag; label: 5'-32P.

The target in data set [5] is T4, SUDV sGP (soluble glycoprotein) (Sudan ebolavirus, UniProt Q7T9E0 Q7T9E0:33-324).
T4 sequence: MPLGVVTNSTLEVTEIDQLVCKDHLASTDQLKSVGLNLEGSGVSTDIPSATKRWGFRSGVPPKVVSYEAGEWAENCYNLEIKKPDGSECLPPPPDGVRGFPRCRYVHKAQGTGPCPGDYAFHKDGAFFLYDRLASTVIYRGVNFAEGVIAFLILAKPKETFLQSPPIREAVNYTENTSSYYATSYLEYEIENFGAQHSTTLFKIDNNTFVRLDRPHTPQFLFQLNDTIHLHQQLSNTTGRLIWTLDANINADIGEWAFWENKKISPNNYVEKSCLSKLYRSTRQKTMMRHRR
Kind of data set: filter; no serum. The settings on record: chain copies: 2; label: 5'-32P.

Data set [6] deals with T1, Human serum albumin (HSA). The data set is described as follows: filter; HSA tested up to 6 uM; estimated. The conditions noted are these: label: 5'-32P.
Data set [7] addresses T3, Lcn2 (lipocalin 2, uterocalin). The data set is described as follows: filter; text says Lcn2 not bound by the aptamers. The conditions noted are these: tags: His-tag; label: 5'-32P.

T1 sequence (P02768 25-609, one chain of several): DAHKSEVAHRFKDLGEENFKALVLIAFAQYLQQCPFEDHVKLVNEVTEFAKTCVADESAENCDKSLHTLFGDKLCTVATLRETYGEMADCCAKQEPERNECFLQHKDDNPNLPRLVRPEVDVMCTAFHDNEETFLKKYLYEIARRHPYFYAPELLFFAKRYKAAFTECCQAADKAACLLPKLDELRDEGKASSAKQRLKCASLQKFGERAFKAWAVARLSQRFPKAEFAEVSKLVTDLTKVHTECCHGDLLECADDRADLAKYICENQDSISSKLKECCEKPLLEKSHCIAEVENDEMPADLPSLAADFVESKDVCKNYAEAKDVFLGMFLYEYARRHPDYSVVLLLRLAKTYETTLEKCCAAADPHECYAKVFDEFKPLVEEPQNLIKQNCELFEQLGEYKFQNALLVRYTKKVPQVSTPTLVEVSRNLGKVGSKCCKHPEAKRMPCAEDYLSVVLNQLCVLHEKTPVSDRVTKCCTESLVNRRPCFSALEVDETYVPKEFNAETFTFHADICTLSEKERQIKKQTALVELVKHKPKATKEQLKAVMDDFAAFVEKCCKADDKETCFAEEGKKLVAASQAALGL
EBOV GP1,2, sequence (Q05320 33-650, one chain of several): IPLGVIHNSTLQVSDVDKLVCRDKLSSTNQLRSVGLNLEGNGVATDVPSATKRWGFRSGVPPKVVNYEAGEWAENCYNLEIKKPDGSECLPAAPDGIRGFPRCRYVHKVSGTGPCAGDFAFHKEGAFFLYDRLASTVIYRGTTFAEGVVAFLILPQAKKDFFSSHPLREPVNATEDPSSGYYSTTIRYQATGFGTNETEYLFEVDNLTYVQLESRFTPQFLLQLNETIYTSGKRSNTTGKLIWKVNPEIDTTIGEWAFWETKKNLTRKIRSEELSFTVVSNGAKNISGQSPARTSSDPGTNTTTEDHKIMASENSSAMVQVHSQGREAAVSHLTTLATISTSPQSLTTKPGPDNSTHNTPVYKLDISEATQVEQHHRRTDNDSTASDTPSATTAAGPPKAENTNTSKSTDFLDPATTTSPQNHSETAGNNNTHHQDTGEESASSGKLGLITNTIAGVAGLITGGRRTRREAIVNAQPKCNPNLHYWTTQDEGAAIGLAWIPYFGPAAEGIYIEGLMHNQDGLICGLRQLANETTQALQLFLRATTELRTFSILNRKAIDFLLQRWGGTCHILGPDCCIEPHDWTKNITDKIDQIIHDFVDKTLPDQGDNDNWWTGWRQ

B1: Aptamer 6021 (ssDNA)
DNA: GCCTGTTGTGAGCCTCCTGTCGAAACTGTACTTCACTTTTACCTCCTCTTGCTCTTATCTGTACTATTGTCTCTCCGTTGAGCGTTTATTCTTGTCTCCC
Usually Kd stands for a measure of binding affinity in units of concentration. Regarding B1, the binding result in data set [1] was “no binding”. Also, binding in data set [2] was characterised by a dissociation constant (Kd) of 0.02 µM.

B2: Aptamer 6011 (ssDNA)
DNA: GCCTGTTGTGAGCCTCCTGTCGAACAACCACTCATATCTACTACATGACTTGCTCCATTCTGTTCTTTCTCTACGCATTGAGCGTTTATTCTTGTCTCCC
With B2, the figures for the Kd in data set [3] and in data set [5] were 0.03 µM and 0.24 µM, respectively. Also, the binding result in the data set with EBOV GP1,2 is recorded as “binds”; in data set [4] it was “no binding”; in data set [1], “no binding”.

B3: Aptamer 6022 (ssDNA)
DNA: GCCTGTTGTGAGCCTCCTGTCGAACCCTATCTTGTTCATGCTATTCTCAATATTTTCGGTTCACTTACCGTCTGCCTTTGAGCGTTTATTCTTGTCTCCC
Turning to B3, the figures for the Kd in data set [2] and in data set [6] were 0.1 µM and ~100 µM, respectively.

B4: Aptamer 6012 (ssDNA)
DNA: GCCTGTTGTGAGCCTCCTGTCGAACGTATTTCTTGCTTCCTTCCTTGCCGCGCACATTGCAGTATAAGTACCTGTCGTTGAGCGTTTATTCTTGTCTCCC
With B4, the Kd in the data set with EBOV GP1,2 came out at 0.022 µM; in data set [2], 0.09 µM. Further, the binding result in data set [1] and in data set [7] was “no binding” throughout.
